{"source": "paper doi:10.1101/2021.11.23.469668", "about": "(bioRxiv, 2021)", "molecules": {"B1": {"name": "Atlas virus GC ectodomain fragment (polyprotein residues 2330-2772) (domain or fragment)", "chain": "CSEVISVTSTEEVCTIQENKETCTFNHATTITLQPLQQQTCLTLNDPEKRPMGMLTVKPDGIKFRCNKKIEFFTRDHQIVSESVHRCHRAGSCHSDECHHVKDTDALPEFSSEANSRPGYTSCSSSCGCITCDGCFFCEPSCLFHRLYAIPTTPTIYSIFYCPSWELEVDAEISLQREDETTTSTIRLLPGRTSTWNNIRFSLIGTIVPQLPILSSAFVTNGRQTSIVKPAYAGQLQSNSVGQLQCPNLEAAKQFECHFSRNLCTCTNALHKVSCTCYDGSVEDHMEALPLPQTSKNFLVFEKDRNIYAKTHVGSALQLHIVAQDLKITTVKHTSHCQVEASDLSGCYSCTSGASLTLSCKSDNGEVLANMKCNEQTHVIRCTESGFINNILLMFDTSEVAADCTAACPGGIVNFTIKGLLAFVNERIISQSYSATDVERNIK", "modifications": "N-linked glycan at Asn414 (GC numbering)"}}, "experiment_in_all_cases": "SEC", "key": {"[1]": {"target": "Atlas GC GPL binding pocket mutant R86A (Ancylostoma ceylanicum (endogenous retrovirus Atlas virus))"}, "[2]": {"target": "Atlas GC fusion loop mutant F136A/F137A (Ancylostoma ceylanicum (endogenous retrovirus Atlas virus))"}, "SEC": {"target": "the molecule itself"}}, "data": [{"molecule": "Atlas GC GPL binding pocket mutant R86A (domain or fragment)", "values": [{"measurement": "stoichiometry N", "setting": "[1]", "value": 3}]}, {"molecule": "Atlas GC fusion loop mutant F136A/F137A (domain or fragment)", "values": [{"measurement": "stoichiometry N", "setting": "[2]", "value": 3}]}, {"molecule": "B1", "values": [{"measurement": "stoichiometry N", "setting": "SEC", "value": 3}]}]}
